In patent US10835594B2, “Type III secretion injectisome proteins for treatment and prevention of chlamydial infections” (priority 2014, dated 2020):

Test system: murine C. trachomatis (Cmu)
Test: Immunization of mice and live intravaginal challenge with Cmu
Parameters: species or system BALB/c mice
Conditions: mouse, in vivo

B1: Cpn0803 protein: Chlamydia pneumoniae type III secretion-associated protein, SEQ ID NO: 1 (protein, listed as Chlamydia pneumoniae)
chain: MAAKTKTLELEDNVFLLLEGNLKRIFATPIGYTTFREFQNVVFNCANGQQEIANFFFEMLINGKLTQELAPQQKQAAHSLIAEFMMPIRVAKDIHERGEFINFITSDMLTQQERCIFLNRLARVDGQEFLLMTDVQNTCHLIRHLLARLLEAQKNPVGEKNLQEIQEEITSLKNHFDELTKALQ
- immune response protective against live challenge: protective against a live challenge with Chlamydia
- immune response protective against live challenge (listed as Cpn0803): Protective Against a Live Challenge with Chlamydia
